# Measurements published in US20260085129A1 (ECO ANIMAL HEALTH, published 2026).
# T1: pCD163-SRCR-FL-PST2-His (porcine, UniProt Q2VL90 51-1044)
# T1 construct: also called pCD163-1-PST2-His; pCD163-SRCR1-PST2; not shown: His tag
# T1 sequence: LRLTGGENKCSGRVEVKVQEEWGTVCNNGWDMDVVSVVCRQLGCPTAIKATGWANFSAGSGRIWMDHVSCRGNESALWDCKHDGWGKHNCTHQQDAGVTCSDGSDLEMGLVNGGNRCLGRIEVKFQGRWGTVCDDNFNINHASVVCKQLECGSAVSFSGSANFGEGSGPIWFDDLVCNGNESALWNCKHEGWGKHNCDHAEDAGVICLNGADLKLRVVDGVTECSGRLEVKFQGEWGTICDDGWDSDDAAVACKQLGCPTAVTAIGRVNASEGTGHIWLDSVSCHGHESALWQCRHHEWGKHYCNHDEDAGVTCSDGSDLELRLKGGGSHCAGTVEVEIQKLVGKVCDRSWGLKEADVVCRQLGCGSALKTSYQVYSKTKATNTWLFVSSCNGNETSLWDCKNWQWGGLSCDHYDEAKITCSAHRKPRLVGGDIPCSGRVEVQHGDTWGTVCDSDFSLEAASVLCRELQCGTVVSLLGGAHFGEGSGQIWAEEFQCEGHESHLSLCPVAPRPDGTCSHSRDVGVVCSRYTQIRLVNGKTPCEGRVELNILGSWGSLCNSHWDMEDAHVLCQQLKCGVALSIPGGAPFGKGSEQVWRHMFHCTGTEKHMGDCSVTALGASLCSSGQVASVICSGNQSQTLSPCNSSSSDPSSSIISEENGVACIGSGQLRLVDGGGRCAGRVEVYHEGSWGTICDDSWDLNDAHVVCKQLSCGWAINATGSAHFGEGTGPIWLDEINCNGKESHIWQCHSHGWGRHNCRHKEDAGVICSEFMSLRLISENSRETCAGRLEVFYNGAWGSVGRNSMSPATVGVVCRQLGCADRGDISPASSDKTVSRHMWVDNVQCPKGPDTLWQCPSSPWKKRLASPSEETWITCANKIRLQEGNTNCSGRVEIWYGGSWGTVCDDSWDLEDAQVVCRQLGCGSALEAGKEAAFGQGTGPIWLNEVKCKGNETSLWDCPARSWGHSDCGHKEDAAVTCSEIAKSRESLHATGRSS
# T2: pCD163-SRCR1-9-huFc (porcine, UniProt Q2VL90 51-1028)
# T2 construct: Limits 51-1028 are those the description gives for CD163-SRCR1-9; also called porcine CD163 SRCR1 to SRCR9 (no PST2) with human Fc; soluble CD163; not shown: human Fc (huFc)
# T2 sequence: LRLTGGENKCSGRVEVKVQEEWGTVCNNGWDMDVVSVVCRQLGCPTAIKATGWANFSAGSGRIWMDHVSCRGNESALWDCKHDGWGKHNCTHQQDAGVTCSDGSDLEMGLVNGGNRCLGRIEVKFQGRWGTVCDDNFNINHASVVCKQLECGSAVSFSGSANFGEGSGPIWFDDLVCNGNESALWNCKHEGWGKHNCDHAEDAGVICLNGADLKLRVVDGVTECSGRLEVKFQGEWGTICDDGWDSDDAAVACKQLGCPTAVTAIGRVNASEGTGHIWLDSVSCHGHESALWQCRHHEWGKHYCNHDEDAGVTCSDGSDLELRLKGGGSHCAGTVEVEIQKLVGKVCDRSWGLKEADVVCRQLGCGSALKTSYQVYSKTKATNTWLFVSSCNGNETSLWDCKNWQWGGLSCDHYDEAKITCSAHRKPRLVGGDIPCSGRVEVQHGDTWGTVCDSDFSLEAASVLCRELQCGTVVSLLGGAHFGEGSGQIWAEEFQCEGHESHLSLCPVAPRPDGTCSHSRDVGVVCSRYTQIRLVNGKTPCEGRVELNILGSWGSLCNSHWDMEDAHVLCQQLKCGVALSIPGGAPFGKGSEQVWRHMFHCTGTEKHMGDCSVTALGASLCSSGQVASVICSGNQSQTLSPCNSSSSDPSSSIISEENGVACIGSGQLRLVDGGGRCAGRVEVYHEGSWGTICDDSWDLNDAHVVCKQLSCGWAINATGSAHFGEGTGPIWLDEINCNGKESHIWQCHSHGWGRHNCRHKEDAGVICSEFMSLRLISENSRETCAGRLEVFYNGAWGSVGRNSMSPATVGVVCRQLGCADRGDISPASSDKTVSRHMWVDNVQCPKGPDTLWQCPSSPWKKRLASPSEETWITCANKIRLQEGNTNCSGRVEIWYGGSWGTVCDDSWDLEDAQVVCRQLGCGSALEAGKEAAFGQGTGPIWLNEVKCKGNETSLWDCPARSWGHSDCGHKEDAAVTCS
# B1: Clone 39-H17B11 VHH antibody (VHH)
# VHH: QVQLVESGGGLVQAGGSLRLSCAASGRTFSSYAMGWFRQTPGKDREFVARIGWTGGTTIYADSVKGRFTISRDNAKNTVYLQMNSLKPEDTAVYYCAADQAGWRTAGVRNTYEYDYWGQGTQVTVSS
# notes: Llama single domain antibody; also called clone 17B11; not shown: tags: c-myc tag on the soluble VHH in periplasmic extracts; FLAG and His tags on the purified VHH
# Experiments:
# Assay in all cases: P.E. binding ELISA, antigen coated at 1 ug/ml, anti-c-Myc detection
# pCD163-SRCR-FL-PST2-His = molecular target: T1, pCD163-SRCR-FL-PST2-His
# Procedure: (§1) For P.E. binding ELISA, MaxiSorp™ high protein-binding capacity 96 well ELISA plates, were coated with 1 μg/ml of pCD163-SRCR-FL-PST2-His or huCD6-pPST2-His, or pCD163-SRCR1-9-huFc protein, diluted in PBS, overnight at 4° C. The next day, plates were washed 3× with PBS Tween 0.05% (pH 7.4) and blocked for 1 hour at room temperature with 250 μl/well of 4% Marvel/PBS. After blocking, plates were washed 3× with PBS Tween 0.05% (pH7.4) and incubated per well with 20 μl of P.E+80 μl in 1% Marvel/PBS (pH7.4), for 1 hour at room temperature (RT) with shaking. Plates were washed 3× with PBS Tween 0.05% (pH7.4) and incubated with 100 μl of anti-c-Myc antibody (Roche; Cat. nr. 11667203001) followed by secondary antibody DAM-HRP (JIR; Cat. nr. 715-035-150) in 1% Marvel/PBS (pH7.4), for 1 hour at RT with shaking. Plates were washed 3× with PBS Tween 0.05% (pH7.4) and the substrate solution (TMB solution) was added to the plates. Reaction was stopped with H2SO4 and plates read in the plate reader at 450 nm.
# pCD163-SRCR1-9-huFc = molecular target: T2, pCD163-SRCR1-9-huFc
# Procedure: as §1
# huCD6-pPST2-His = molecular target: T3, huCD6-pPST2-His (human, UniProt P30203 18-402)
# T3 construct: composition read from the name; not shown: His tag
# T3 sequence (P30203 whole entry): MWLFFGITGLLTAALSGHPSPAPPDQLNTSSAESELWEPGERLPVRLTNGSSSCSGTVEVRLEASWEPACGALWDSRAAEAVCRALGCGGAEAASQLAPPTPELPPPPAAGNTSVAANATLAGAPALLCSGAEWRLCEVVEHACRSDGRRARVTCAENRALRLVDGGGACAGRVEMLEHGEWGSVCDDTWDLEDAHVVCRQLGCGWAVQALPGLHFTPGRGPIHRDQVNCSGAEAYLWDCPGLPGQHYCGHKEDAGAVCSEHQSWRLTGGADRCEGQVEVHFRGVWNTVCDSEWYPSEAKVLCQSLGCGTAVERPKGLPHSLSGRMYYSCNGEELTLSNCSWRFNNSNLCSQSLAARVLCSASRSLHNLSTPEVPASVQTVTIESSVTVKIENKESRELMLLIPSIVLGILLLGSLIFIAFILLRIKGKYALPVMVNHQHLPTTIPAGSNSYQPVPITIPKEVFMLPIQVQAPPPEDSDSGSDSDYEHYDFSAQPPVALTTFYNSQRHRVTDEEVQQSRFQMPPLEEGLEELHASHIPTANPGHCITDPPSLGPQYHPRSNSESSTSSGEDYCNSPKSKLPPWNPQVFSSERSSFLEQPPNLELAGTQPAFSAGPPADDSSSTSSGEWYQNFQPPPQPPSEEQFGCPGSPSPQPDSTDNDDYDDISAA
# Procedure: as §1
binder,measurement,setting,value
B1,O.D. 450 nm,pCD163-SRCR-FL-PST2-His,0.066 O.D. 450 nm
same,O.D. 450 nm,pCD163-SRCR1-9-huFc,0.091 O.D. 450 nm
same,O.D. 450 nm,huCD6-pPST2-His,0.052 O.D. 450 nm
